# Test results reported in US20090099029.
# T1: Bovine, dephosphorylated, Myelin Basic Protein (MBP), P02687
# T1 chain: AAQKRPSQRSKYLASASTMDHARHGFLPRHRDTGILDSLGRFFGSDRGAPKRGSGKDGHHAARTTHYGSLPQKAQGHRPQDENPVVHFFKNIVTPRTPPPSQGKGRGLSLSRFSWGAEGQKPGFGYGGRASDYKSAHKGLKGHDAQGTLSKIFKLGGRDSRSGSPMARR
# B1: PAK3 (protein)
# chain: MSDGLDNEEKPPAPPLRMNSNNRDSSALNHSSKPLPMAPEEKNKKARLRSIFPGGGDKTNKKKEKERPEISLPSDFEHTIHVGFDAVTGEFTGIPEQWARLLQTSNITKLEQKKNPQAVLDVLKFYDSKETVNNQKYMSFTSGDKSAHGYIAAHPSSTKTASEPPLAPPVSEEEDEEEEEEEDENEPPPVIAPRPEHTKSIYTRSVVESIASPAVPNKEVTPPSAENANSSTLYRNTDRQRKKSKMTDEEILEKLRSIVSVGDPKKKYTRFEKIGQGASGTVYTALDIATGQEVAIKQMNLQQQPKKELIINEILVMRENKNPNIVNYLDSYLVGDELWVVMEYLAGGSLTDVVTETCMDEGQIAAVCRECLQALDFLHSNQVIHRDIKSDNILLGMDGSVKLTDFGFCAQITPEQSKRSTMVGTPYWMAPEVVTRKAYGPKVDIWSLGIMAIEMVEGEPPYLNENPLRALYLIATNGTPELQNPERLSAVFRDFLNRCLEMDVDRRGSAKELLQHPFLKLAKPLSSLTPLIIAAKEAIKNSSR
# B2: PLK3 (protein)
# chain: SGRTYLKGRLLGKGGFARCYEATDTETGSAYAVKVIPQSRVAKPHQREKILNEIELHRDLQHRHIVRFSHHFEDADNIYIFLELCSRKSLAHIWKARHTLLEPEVRYYLRQILSGLKYLHQRGILHRDLKLGNFFITENMELKVGDFGLAARLEPPEQRKKTICGTPNYVAPEVLLRQGHGPEADVWSLGCVMYTLLCGSPPFETADLKETYRCIKQVHYTLPASLSLPARQLLAAILRASPRDRPSIDQILRHDFFTKGYTPDRLPISSCVTVPDLTPPNPA
# B3: MAPKAPK5(PRAK) (protein)
# chain: MSEESDMDKAIKETSILEEYSINWTQKLGAGISGPVRVCVKKSTQERFALKILLDRPKARNEVRLHMMCATHPNIVQIIEVFANSVQFPHESSPRARLLIVMEMMEGGELFHRISQHRHFTEKQASQVTKQIALALRHCHLLNIAHRDLKPENLLFKDNSLDAPVKLCDFGFAKIDQGDLMTPQFTPYYVAPQVLEAQRRHQKEKSGIIPTSPTPYTYNKSCDLWSLGVIIYVMLCGYPPFYSKHHSRTIPKDMRRKIMTGSFEFPEEEWSQISEMAKDVVRKLLKVKPEERLTIEGVLDHPWLNSTEALDNVLPSAQLMMDKAVVAGIQQAHAEQLANMRIQDLKVSLKPLHSVNNPILRKRKLLGTKPKDSVYIHDHENGAEDSNVALEKLRDVIAQCILPQAGENEDEKLNEVMQEAWKYNRECKLLRDTLQSFSWNGRGFTDKVDRLKLAEIVKQVIEEQTTSHESQ
# B4: NEK2 (protein)
# chain: MPSRAEDYEVLYTIGTGSYGRCQKIRRKSDGKILVWKELDYGSMTEAEKQMLVSEVNLLRELKHPNIVRYYDRIIDRTNTTLYIVMEYCEGGDLASVITKGTKERQYLDEEFVLRVMTQLTLALKECHRRSDGGHTVLHRDLKPANVFLDGKQNVKLGDFGLARILNHDTSFAKTFVGTPYYMSPEQMNRMSYNEKSDIWSLGCLLYELCALMPPFTAFSQKELAGKIREGKFRRIPYRYSDELNEIITRMLNLKDYHRPSVEEILENPLIADLVADEQRRNLERRGRQLGEPEKSQDSSPVLSELKLKEIQLQERERALKAREERLEQKEQELCVRERLAEDKLARAENLLKNYSLLKERKFLSLASNPELLNLPSSVIKKKVHFSGESKENIMRSENSESQLTSKSKCKDLKKRLHAAQLRAQALSDIEKNYQLKSRQILGMR
# B5: EPHB1 (protein)
# chain: SRKRAYSKEAVYSDKLQHYSTGRGSPGMKIYIDPFTYEDPNEAVREFAKEIDVSFVKIEEVIGAGEFGEVYKGRLKLPGKREIYVAIKTLKAGYSEKQRRDFLSEASIMGQFDHPNIIRLEGVVTKSRPVMIITEFMENGALDSFLRQNDGQFTVIQLVGMLRGIAAGMKYLAEMNYVHRDLAARNILVNSNLVCKVSDFGLSRYLQDDTSDPTYTSSLGGKIPVRWTAPEAIAYRKFTSASDVWSYGIVMWEVMSFGERPYWDMSNQDVINAIEQDYRLPPPMDCPAALHQLMLDCWQKDRNSRPRFAEIVNTLDKMIRNPASLKTVATITAVPSQPLLDRSIPDFTAFTTVDDWLSAIKMVQYRDSFLTAGFTSLQLVTQMTSEDLLRIGITLAGHQKKILNSIHSMRVQISQSPTAMA
# B6: MYLK2 (protein)
# chain: MATENGAVELGIQNPSTDKAPKGPTGERPLAAGKDPGPPDPKKAPDPPTLKKDAKAPASEKGDGTLAQPSTSSQGPKGEGDRGGGPAEGSAGPPAALPQQTATPETSVKKPKAEQGASGSQDPGKPRVGKKAAEGQAAARRGSPAFLHSPSCPAIISSSEKLLAKKPPSEASELTFEGVPMTHSPTDPRPAKAEEGKNILAESQKEVGEKTPGQAGQAKMQGDTSRGIEFQAVPSEKSEVGQALCLTAREEDCFQILDDCPPPPAPFPHRMVELRTGNVSSEFSMNSKEALGGGKFGAVCTCMEKATGLKLAAKVIKKQTPKDKEMVLLEIEVMNQLNHRNLIQLYAAIETPHEIVLFMEYIEGGELFERIVDEDYHLTEVDTMVFVRQICDGILFMHKMRVLHLDLKPENILCVNTTGHLVKIIDFGLARRYNPNEKLKVNFGTPEFLSPEVVNYDQISDKTDMWSMGVITYMLLSGLSPFLGDDDTETLNNVLSGNWYFDEETFEAVSDEAKDFVSNLIVKDQRARMNAAQCLAHPWLNNLAEKAKRCNRRLKSQILLKKYLMKRRWKKNFIAVSAANRFKKISSSGALMALGV
# B7: PAK1 (protein)
# chain: MSNNGLDIQDKPPAPPMRNTSTMIGAGSKDAGTLNHGSKPLPPNPEEKKKKDRFYRSILPGDKTNKKKEKERPEISLPSDFEHTIHVGFDAVTGEFTGMPEQWARLLQTSNITKSEQKKNPQAVLDVLEFYNSKKTSNSQKYMSFTDKSAEDYNSSNALNVKAVSETPAVPPVSEDEDDDDDDATPPPVIAPRPEHTKSVYTRSVIEPLPVTPTRDVATSPISPTENNTTPPDALTRNTEKQKKKPKMSDEEILEKLRSIVSVGDPKKKYTRFEKIGQGASGTVYTAMDVATGQEVAIKQMNLQQQPKKELIINEILVMRENKNPNIVNYLDSYLVGDELWVVMEYLAGGSLTDVVTETCMDEGQIAAVCRECLQALEFLHSNQVIHRDIKSDNILLGMDGSVKLTDFGFCAQITPEQSKRSTMVGTPYWMAPEVVTRKAYGPKVDIWSLGIMAIEMIEGEPPYLNENPLRALYLIATNGTPELQNPEKLSAIFRDFLNRCLEMDVEKRGSAKELLQHQFLKIAKPLSSLTPLIAAAKEATKNNH
# B8: NEK3 (protein)
# chain: MDDYMVLRMIGEGSFGRALLVQHESSNQMFAMKEIRLPKSFSNTQNSRKEAVLLAKMKHPNIVAFKESFEAEGHLYIVMEYCDGGDLMQKIKQQKGKLFPEDMILNWFTQMCLGVNHIHKKRVLHRDIKSKNIFLTQNGKVKLGDFGSARLLSNPMAFACTYVGTPYYVPPEIWENLPYNNKSDIWSLGCILYELCTLKHPFQANSWKNLILKVCQGCISPLPSHYSYELQFLVKQMFKRNPSHRPSATTLLSRGIVARLVQKCLPPEIIMEYGEEVLEEIKNSKHNTPRKKTNPSRIRIALGNEASTVQEEEQDRKGSHTDLESINENLVESALRRVNREEKGNKSVHLRKASSPNLHRRQWEKNVPNTALTALENASILTSSLTAEDDRGGSVIKYSKNTTRKQWLKETPDTLLNILKNADLSLAFQTYTIYRPGSEGFLKGPLSEETEASDSVDGGHDSVILDPERLEPGLDEEDTDFEEEDDNPDWVSELKKRAGWQGLCDR
# B9: EPHA8 (protein)
# chain: KKRHCGYSKAFQDSDEEKMHYQNGQAPPPVFLPLHHPPGKLPEPQFYAEPHTYEEPGRAGRSFTREIEASRIHIEKIIGSGDSGEVCYGRLRVPGQRDVPVAIKALKAGYTERQRRDFLSEASIMGQFDHPNIIRLEGVVTRGRLAMIVTEYMENGSLDTFLRTHDGQFTIMQLVGMLRGVGAGMRYLSDLGYVHRDLAARNVLVDSNLVCKVSDFGLSRVLEDDPDAAYTTTGGKIPIRWTAPEAIAFRTFSSASDVWSFGVVMWEVLAYGERPYWNMTNRDVISSVEEGYRLPAPMGCPHALHQLMLDCWHKDRAQRPRFSQIVSVLDALIRSPESLRATATVSRCPPPAFVRSCFDLRGGSGGGGGLTVGDWLDSIRMGRYRDHFAAGGYSSLGMVLRMNAQDVRALGITLMGHQKKILGSIQTMRAQLTSTQGPRRHL
# B10: MINK1 (protein)
# chain: MGDPAPARSLDDIDLSALRDPAGIFELVEVVGNGTYGQVYKGRHVKTGQLAAIKVMDVTEDEEEEIKQEINMLKKYSHHRNIATYYGAFIKKSPPGNDDQLWLVMEFCGAGSVTDLVKNTKGNALKEDCIAYICREILRGLAHLHAHKVIHRDIKGQNVLLTENAEVKLVDFGVSAQLDRTVGRRNTFIGTPYWMAPEVIACDENPDATYDYRSDIWSLGITAIEMAEGAPPLCDMHPMRALFLIPRNPPPRLKSKKWSKKFIDFIDTCLIKTYLSRPPTEQLLKFPFIRDQPTERQVRIQLKDHIDRSRKKRGEKEETE
# B11: PAK6 (protein)
# chain: MFRKKKKKRPEISAPQNFQHRVHTSFDPKEGKFVGLPPQWQNILDTLRRPKPVVDPSRITRVQLQPMKTVVRGSAMPVDGYISGLLNDIQKLSVISSNTLRGRSPTSRRRAQSLGLLGDEHWATDPDMYLQSPQSERTDPHGLYLSCNGGTPAGHKQMPWPEPQSPRVLPNGLAAKAQSLGPAEFQGASQRCLQLGACLQSSPPGASPPTGTNRHGMKAAKHGSEEARPQSCLVGSATGRPGGEGSPSPKTRESSLKRRLFRSMFLSTAATAPPSSSKPGPPPQSKPNSSFRPPQKDNPPSLVAKAQSLPSDQPVGTFSPLTTSDTSSPQKSLRTAPATGQLPGRSSPAGSPRTWHAQISTSNLYLPQDPTVAKGALAGEDTGVVTHEQFKAALRMVVDQGDPRLLLDSYVKIGEGSTGIVCLAREKHSGRQVAVKMMDLRKQQRRELLFNEVVIMRDYQHFNVVEMYKSYLVGEELWVLMEFLQGGALTDIVSQVRLNEEQIATVCEAVLQALAYLHAQGVIHRDIKSDSILLTLDGRVKLSDFGFCAQISKDVPKRKSLVGTPYWMAPEVISRSLYATEVDIWSLGIMVIEMVDGEPPYFSDSPVQAMKRLRDSPPPKLKNSHKVSPVLRDFLERMLVRDPQERATAQELLDHPFLLQTGLPECLVPLIQLYRKQTSTC
# B12: PHKG2 (protein)
# chain: MTLDVGPEDELPDWAAAKEFYQKYDPKDVIGRGVSSVVRRCVHRATGHEFAVKIMEVTAERLSPEQLEEVREATRRETHILRQVAGHPHIITLIDSYESSSFMFLVFDLMRKGELFDYLTEKVALSEKETRSIMRSLLEAVSFLHANNIVHRDLKPENILLDDNMQIRLSDFGFSCHLEPGEKLRELCGTPGYLAPEILKCSMDETHPGYGKEVDLWACGVILFTLLAGSPPFWHRRQILMLRMIMEGQYQFSSPEWDDRSSTVKDLISRLLQVDPEARLTAEQALQHPFFERCEGSQPWNLTPRQRFRVAVWTVLAAGRVALSTHRVRPLTKNALLRDPYALRSVRHLIDNCAFRLYGHWVKKGEQQNRAALFQHRPPGPFPIMGPEEEGDSAAITEDEAVLVLG
# Target: T1, Bovine, dephosphorylated, Myelin Basic …
row,Protein,MBP Kinase Activity
1,B1,Weak
2,B2,Negative
3,B3,Strong
4,B4,Strong
5,B5,Strong
6,B6,Negative
7,B7,Negative
8,B8,Negative
9,B9,Weak
10,B10,Weak
11,B11,Negative
12,B12,Negative
